{"source": "paper PMC11112747", "about": "“Cyanovirin-N Binding to N-Acetyl-D-glucosamine Requires Carbohydrate-Binding Sites on Two Different Protomers” (Biochemistry, 2024)", "target": "chemically synthesized dimannosylated peptide (DM), 12mer peptide from hemagglutinin (HA) with diman", "data": [{"substance": "CVN2L0, a tandem-linked dimeric CVN2 with zero-linker length (tandem repeat of two cyanovirin-N molecules)", "values": [{"measurement": "Kd", "result": 3.94, "unit": "µM"}]}]}
